Measured values taken from the nanobody polyreactivity screen of Harvey et al. (2022).

Experiment: yeast display, Sf9 membrane polyspecificity reagent, FACS + sequencing; frameworks hold sequencing errors
Procedure, shortened: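 A synthetic nanobody library was expressed on Saccharomyces cerevisiae BJ5465 by galactose induction for 36–48 hours. The library was stained for 1 hour at 4 °C with 10% biotinylated, detergent-solubilized Sf9 membrane reagent and enriched with streptavidin microbeads before FACS. Low and high (top ~1%) gates were set on anti-HA fluorescence for expression and streptavidin fluorescence for reagent binding, and each polyreactivity label reflects the gate of origin.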
For “QVQLVESGGGLVQAGGSLRLSCGASGFIFGSYAMGWYRQAPGKERELVAAISWSGGGTYYADSVKGRFTISRDNAKNTVYLQMNRLNPEDTAVYYCGALTRYKTASGYDYWGQGTQVTVSS”, the “polyreactivity (PSR sort gate)” value was “high polyreactivity”. In the case of “QVQLVESGGGLVQAGGSLRLSCAASGSTFALYPMGCYRQAPGKERELVAGITIDGSTNYADSVKGRFTISRDNAKNTVYLQMNSLKPEDTAVYYCNADSYKYPLLKYRSDYWGQGTQVTVSS”, the “polyreactivity (PSR sort gate)” value is reported as “low polyreactivity”. In the case of “QVQLVESGGGLVQAGGSLRLSCAASGFTFRDYAMGWYRPAPGKERELVAAIDIGTTTYYADSVKGRFTISRDNAKNTVYLQMNSLKPEDSAVYYCNKGTNRSGGYDSWGQGTQVTVSS”, the “polyreactivity (PSR sort gate)” value is reported as “low polyreactivity”. In the case of “QVQIVESGGGLVQAGGSLRISCAASGLIYSSYGMGWYRQAPGKERELVAAISSGGSTYYADSVKGRFSISRDNAKNTVYLQKKSLKPEDTAVYYCADGVLYPYWYSTYYPDCQYYYWGHGTQVTVSS”, the “polyreactivity (PSR sort gate)” value is reported as “low polyreactivity”. In the case of “QVQLVESGGGLVQAGGSLRLSCAASGRTLVPYAMGWYRQAPGKERELVAAINSSGGSTYYADSVKGRFTISRDNAKNTVYLQMNSLKPEDTAVYYCNVQSVHFRLWKDNYWGQGTQVTVSS”, the “polyreactivity (PSR sort gate)” value is reported as “high polyreactivity”. In the case of “QVQLVESGGGLVQAGGSLRLICAASGSTFVSNAMGWYRQAPGKERELVAAITVSGGRTYYADSVKGRFTISRDNAKNTVYLQMNSLKPEDTAVYYCAAQIYGKYDYWGQGTQVTVSS”, the “polyreactivity (PSR sort gate)” value is reported as “low polyreactivity”. With “QVQLVESGGGLVQAGGSLRLSCAASGRTFLYYAMGWYRQAPGKERELVAAIRRGSSTYYADSVKGRFTISRDNAKNTVYLQMNSLKPEDTAVYYCNKVYYAFRVSLYRYGYWGQGTQVTVSS” the “polyreactivity (PSR sort gate)” value was “high polyreactivity”. In the case of “QVQLVESGGGLVQAGGSLRLSCAASGSTFPDYSKGWYRQAPGKERLLVADITYGGSSTYYADSVKGRFTISSDNAKNTVYLQMNSLKPDDTAVYYCAADTDYYTLIRSVLAYDYWGQGTQVTVSS”, the “polyreactivity (PSR sort gate)” value is reported as “low polyreactivity”. With “QVQLVESGGGLVQAGGSLRLSCAASGYIFYAYAMAWYRHAPGKESELVAAITDNGVSTFYADSVKGRFTISRDNAKNTVYLHMNSLIPEDTAVYYCATSSTHSRGDEYWGQGTQVAVSS” the “polyreactivity (PSR sort gate)” value was “low polyreactivity”. For “QVQLVESGGGLVQAGGSLRLSCAASGITFYDNVMGWYRQAPGKERELVAAITSGGSTNYADSVKGRFTISRDNAKNTVYFQMNRLKPEDTAVYYCAAQPRVDYEFPYRYGYWGQGTQVTVSA”, the “polyreactivity (PSR sort gate)” value was “low polyreactivity”. In the case of “QVQLVESGGGLVQAGGSLRLTCAASGRTFTLNSMGWYRQAPGKERELVAAIRRGGSTYYADSVKGRFTISRDNAKNTVYLQMNSLKPVDTAVYYCAAYKGSYGGYRMQYSYNYWGQGTQVTVSS”, the “polyreactivity (PSR sort gate)” value is reported as “high polyreactivity”. In the case of “QVQLVESGGGLVQAGGSLRLSCAASGLTFGTNAMGWYIQAPGKERELVAAISTSSGSTYYADSVKGRFTISRDNAKNTVYLQMNSLKPEDTAVYYCAAVTVTKLSYYRYYYWGQGTQVTVSS”, the “polyreactivity (PSR sort gate)” value is reported as “low polyreactivity”. For “QVQLVESGGGLVQAGGSLRLSCAASGSTFLVYAMGWYRQAPGKERELVAAIRGGGSTNYADSVKGRFTISRDNAKNTVYLQMNSLKPEDTAVYYCNADIVLSWFGSGFDYWGQGTQVTVSS”, the “polyreactivity (PSR sort gate)” value was “low polyreactivity”. With “QVQLVESGGGLVQAGGSLRLSCAASGSIFNYNDMGWYRQAPGKERELVAAIDSSGTSTYYADSVKGRFTISRDNAKNTVYLQMNSLKPEDTAVYYCNADSSLGFGYWGQGTQVTVSS” the “polyreactivity (PSR sort gate)” value was “low polyreactivity”. For “QVQLVESGGGLVQAGGSLRLSCAASGNILGSYAMGWYRQAPWKQRELVAAITWSGGTTYYADSVKGRFTISCDNAKNTVYLQMNSLKPEDTAVYYCAVEIVLTRFDYWGQGTQVTVSS”, the “polyreactivity (PSR sort gate)” value was “low polyreactivity”. For “QVQLVESGGGLVQAGGSLRFSCAASGRTFVPYAMGWYRQAPGKERELVARIDSSGGSTYYADSVKGRFTISRDNAKNTVYLQMNSLKPEDTAVYYCAAVFYYWSLRSYYWGQGTQVTVSS”, the “polyreactivity (PSR sort gate)” value was “high polyreactivity”. With “QVQLVESGGGLVQAGGSLRLSSAASGRIFYGYAMGWSRQAPGKERELVAAITRSSSTYFADSVKGRFTISRDNAKNTVYLQMNSLKPEDTAVYDCAVYRLSWIGSVQYEYWGQGTQVTVSS” the “polyreactivity (PSR sort gate)” value was “high polyreactivity”. In the case of “QVQLVESGGGLVQAGGSIRLSCAASGRTFDGNALGWYRKAPGKERELVAAITSGGSTNYAYSVKGRFTISRDNAKNTVYVQRNSLKPEDTAVYYCAAERWYGYSHSDFGYWGQGTQVTVSS”, the “polyreactivity (PSR sort gate)” value is reported as “high polyreactivity”. With “QVQLVESGGGLVQAGGSLRLSCAASGRIFPGNAMGGYRQAPGKERELVATISRIGGSTYADSVKGRFTISRDNAKNTVYLQMNSLKPEDTAVYYCAKTWVSRDVEYDYWGQGTQVTVSS” the “polyreactivity (PSR sort gate)” value was “low polyreactivity”. For “QVQLVESGGGLVQAGGSLRLSCAASGYTFGGNAMGWYRQAPGKERELVAAISSGGSTNYADSVKGRFTISRDNAKNTVYLQMNSLKPEDTAVYYCNKRGYYYWSGQDVASYDYWGQGTQVTVSS”, the “polyreactivity (PSR sort gate)” value was “low polyreactivity”. With “QVQLVESGGGLVQAGGSLRLSCAASGIIFARYAMGWYRQAPGKERELVASINWTGGNTYADSVKGRFTISRDNAKNSVYLQMNSLNPEDTAVYYCARDFSPGSSDPNASISFDHWGQGTQVTVSS” the “polyreactivity (PSR sort gate)” value was “low polyreactivity”. With “QDQLVESGGGLVQAGGSLRLSCAASGFTFNANAMGWYRQAPGKERELVAAITRSGGRTYYADSVKGRFTISRDNAKNTVYLQMNSLKPEDTAVYYCANLVTNGRYDSWGQGTQVTVSS” the “polyreactivity (PSR sort gate)” value was “high polyreactivity”. With “QVQLVESGGGVVQAGGSLRLSCAASGRTFGSNAMGWYRQAPGKERELVAGITTSGGSTNYADSVKGRFTISRDNAKNTVYLQMNSLKPEETAVYFCAVANYGIGYPHYIFDYWGQGTQVTVSS” the “polyreactivity (PSR sort gate)” value was “low polyreactivity”. With “QVQLVESGGGLVQAGGSLRLSCAASGRIFLVYAMGWYRQAPGKERELVAAIRSGGSTYYADSVKGRFTISRDNAKNTVYLQMNSLKPEVTAVYYCIADSPWYWVRYGVSRRDYWGQGTQVTVSS” the “polyreactivity (PSR sort gate)” value was “low polyreactivity”. With “QVQLVESGGGLVQAGGSLRLSCAASGSIFVPYAMGWYRQAPGKERELVAAISNGDSTYYADSVKGRFTISRDNGKNTVYLQMNSLNPEDTAVYYCAAPYAGWRDGGDYWGQGTQVTVSS” the “polyreactivity (PSR sort gate)” value was “low polyreactivity”. For “QVQLVESGGGLVQAGGSLRLSCAASGRIFSLNVMGWYRPAPGKERELVATIRGRGTSTYYADSVKGRFTISRDNAKNTVYLQMNSLKPEDTAVYYCAARGHGAYGYWGQGTQVTVSS”, the “polyreactivity (PSR sort gate)” value was “low polyreactivity”. With “QVQLVESGGGLVQAGGSLRLICAASGSTFGVYAMGWYRQAPGKEREMVAAIRWSSGSTYYADSVKGRFTISRDNAKNTVYLQMNSLKPEDTAVYYCAKTRGIYNIRFGYWGQGTQVTVSS” the “polyreactivity (PSR sort gate)” value was “high polyreactivity”. In the case of “QVQLVESGGGLVQAGGSLRLSCAASGSIFFRYAMGWYRQAPGKVRELVANISSGGGNTYYADSVKGRFTISRDNAKNTVYLQMNSLKPEDTAVYYCARRLATRGHTYDYWGQGTQVTVSS”, the “polyreactivity (PSR sort gate)” value is reported as “low polyreactivity”. With “QVQLVESGGCLVHAGGSLRVSSAASGITFILNAMGWYRQAHGKEREFVAAISTYRGNTYYADSVKGRFTISRDNVKNTFYLEMYSLKPEDTAVYYSNADLYFRQGDVDLLRYVYWVQGTQVTVSS” the “polyreactivity (PSR sort gate)” value was “low polyreactivity”. For “QVQLVESGGGLVQAVGSLRLSCAASGFTFSVNAMGWYRQAPGKERELVAAITRSGGRTYYADSVKGRFTISRDNAQNTVYLQMNSLKPEDTAVYYCATPRSRTDGYDYWGQGTQVTVSS”, the “polyreactivity (PSR sort gate)” value was “high polyreactivity”.
